Data reported in US20140234351A1, “CANCER VACCINES AND VACCINATION METHODS” (ImmunoCellular Therapeutics, Ltd., priority 2013, published 2014).

Molecular target: HLA-A*0201 molecules on TAP-deficient T2 cells (human)
Test: T2 cell binding assay, fluorescence index (MFI peptide - MFI untreated)/MFI untreated
Conditions: remark: other sources report otherwise

VMAGVGSPYV [HER2/neu 773-782 HLA-A2 peptide]
MFI index: > 1.5
